From patent publication US20120058906A1 (published 2012)
One block for each binder: values may come before it.

What was measured:
[1] = target: T1, rHuman ErbB2/Fc Chimera, CF (R&D Systems Cat#1129-ER) (human, UniProt P04626 23-652); test: MSD ECL multi-spot assay, antigen spotted on plate, Fab 0.65 uM; blank spot 441
T1 construct: Bought protein; also called HER2/neu; human epidermal growth factor 2 receptor; Fc part of the bought chimera not given

[2] = target: T2, rHuman IGF-1 sR (IGF-1 sR), CF (R&D Systems Cat#391-GR) (human, UniProt P08069 31-932); test: as above
T2 construct: Bought soluble receptor; also called insulin-like growth factor-1 soluble receptor; IGF-R1

[3] = target: T3, rHuman EGF R/Fc Chimera, CF (R&D Systems Cat#344-ER) (human, UniProt P00533 25-645); test: as above
T3 construct: Bought protein; also called epidermal growth factor receptor; Fc part of the bought chimera not given

[4] = target: T4, Recombinant Human DLL4 (R&D Systems Cat#1506-D4/CF) (human, UniProt Q9NR61 27-524); test: as above
T4 construct: Bought protein; also called delta-like protein 4; rHuman DLL4

[5] = target: T5, rHuman HGF R/c-MET/Fc Chimera, CF (R&D Systems Cat#358-MT/CF) (human, UniProt P08581 25-932); test: as above
T5 construct: Bought protein; also called HGF R/Fc; hepatocyte growth factor receptor; Fc part of the bought chimera not given

[6] = target: T6, rHuman P-Cadherin/Fc Chimera, CF (R&D Systems Cat#861-PC) (human, UniProt P22223 108-654); test: as above
T6 construct: Bought protein; also called CDH3; Fc part of the bought chimera not given

[7] = target: T7, rHuman CD44/Fc Chimera, CF (R&D Systems Cat#3660-CD) (human, UniProt P16070 21-220); test: as above
T7 construct: Bought protein; Fc part of the bought chimera not given

[8] = target: T8, rHuman Erythropoietin R/Fc Chimera, CF (R&D Systems Cat#963-ER) (human, UniProt P19235 25-250); test: MSD ECL multi-spot assay, antigen spotted on plate, Fab 0.25 uM; blank spot 3693
T8 construct: Bought protein; also called EPOR; EPO R/Fc; Fc part of the bought chimera not given
T8 sequence: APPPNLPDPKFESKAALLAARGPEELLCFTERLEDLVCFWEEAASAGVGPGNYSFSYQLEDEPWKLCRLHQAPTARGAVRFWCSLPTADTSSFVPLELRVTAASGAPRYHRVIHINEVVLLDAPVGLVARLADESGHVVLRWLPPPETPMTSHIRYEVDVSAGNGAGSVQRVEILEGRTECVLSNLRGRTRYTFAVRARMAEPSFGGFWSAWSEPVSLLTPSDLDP

[9] = target: T2, rHuman IGF-1 sR (IGF-1 sR), CF (R&D …); test: as above
[10] = target: T3, rHuman EGF R/Fc Chimera, CF (R&D …); test: as above
[11] = target: T4, Recombinant Human DLL4 (R&D Systems …); test: as above
[12] = target: T6, rHuman P-Cadherin/Fc Chimera, CF (R&D …); test: as above
[13] = target: T8, rHuman Erythropoietin R/Fc Chimera, CF …; test: MSD ECL multi-spot assay, antigen spotted on plate, Fab 0.36 uM; blank spot 928;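 further: blank spot per well as comparator with Hit at signal to blank ratio of 4 or more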
[14] = target: T1, rHuman ErbB2/Fc Chimera, CF (R&D …); test: as above
[15] = target: T9, rHuman Notch-1/Fc Chimera, CF (R&D Systems Cat#3647-TK) (human, UniProt P46531 19-526); test: as above
T9 construct: Bought protein; Fc part of the bought chimera not given

[16] = target: T2, rHuman IGF-1 sR (IGF-1 sR), CF (R&D …); test: as above
[17] = target: T3, rHuman EGF R/Fc Chimera, CF (R&D …); test: as above
[18] = target: T4, Recombinant Human DLL4 (R&D Systems …); test: as above
[19] = target: T5, rHuman HGF R/c-MET/Fc Chimera, CF (R&D …); test: as above
[20] = target: T6, rHuman P-Cadherin/Fc Chimera, CF (R&D …); test: as above
[21] = target: T7, rHuman CD44/Fc Chimera, CF (R&D Systems …); test: as above
[22] = target: T8, rHuman Erythropoietin R/Fc Chimera, CF …; test: MSD ECL multi-spot assay, antigen spotted on plate, Fab 0.03 uM; blank spot 373;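 further: blank spot per well as comparator with Hit at signal to blank ratio of 4 or more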
[23] = target: T1, rHuman ErbB2/Fc Chimera, CF (R&D …); test: as above
[24] = target: T9, rHuman Notch-1/Fc Chimera, CF (R&D …); test: as above
[25] = target: T2, rHuman IGF-1 sR (IGF-1 sR), CF (R&D …); test: as above
[26] = target: T3, rHuman EGF R/Fc Chimera, CF (R&D …); test: as above
[27] = target: T4, Recombinant Human DLL4 (R&D Systems …); test: as above
[28] = target: T5, rHuman HGF R/c-MET/Fc Chimera, CF (R&D …); test: as above
[29] = target: T6, rHuman P-Cadherin/Fc Chimera, CF (R&D …); test: as above
[30] = target: T7, rHuman CD44/Fc Chimera, CF (R&D Systems …); test: as above
[31] = target: T8, rHuman Erythropoietin R/Fc Chimera, CF …; test: MSD ECL multi-spot assay, antigen spotted on plate, Fab 1.19 uM; blank spot 11543
[32] = target: T9, rHuman Notch-1/Fc Chimera, CF (R&D …); test: as above
[33] = target: T2, rHuman IGF-1 sR (IGF-1 sR), CF (R&D …); test: as above
[34] = target: T3, rHuman EGF R/Fc Chimera, CF (R&D …); test: as above
[35] = target: T4, Recombinant Human DLL4 (R&D Systems …); test: as above
[36] = target: T6, rHuman P-Cadherin/Fc Chimera, CF (R&D …); test: as above

- ECL signal [1]: 2940
- ECL signal [2]: 656
- ECL signal [3]: 662
- ECL signal [4]: 849
- ECL signal [5]: 437
- ECL signal [6]: 695
- ECL signal [7]: 797
B1: Fab VH1-69_IGHD1-1*01_IGHJ6*01 & A17_IGKJ1*01 (Fab, V domains shown)
VH: QVQLVQSGAEVKKPGSSVKVSCKASGGTFSSYAISWVRQAPGQGLEWMGGIIPIFGTANYAQKFQGRVTITADKSTSTAYMELSSLRSEDTAVYYCARGYNWNDDYYYYYGMDVWGQGTTVTVSS
VL: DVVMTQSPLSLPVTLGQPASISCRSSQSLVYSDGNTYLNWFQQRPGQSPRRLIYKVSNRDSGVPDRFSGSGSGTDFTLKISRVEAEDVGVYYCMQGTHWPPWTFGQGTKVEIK
notes: Fab from E. coli; VH joined to the CH1 (Flag and His tags) of Plasmid A, VL to the kappa CL of Plasmid C

- ECL signal [8]: 30100
- ECL signal [9]: 4930
- ECL signal [10]: 88000
- ECL signal [11]: 14700
- ECL signal [12]: 16100
B2: Fab VH1-46_IGHD2-15*01_IGHJ2*01 & L2_IGKJ1*01 (Fab, V domains shown)
VH: QVQLVQSGAEVKKPGASVKVSCKASGYTFTSYYMHWVRQAPGQGLEWMGIINPSGGSTSYAQKFQGRVTMTRDTSTSTVYMELSSLRSEDTAVYYCAREGYCSGGSCYSYWYFDLWGRGTLVTVSS
VL: not shown

- ECL signal [13]: 2430
- ECL signal [14]: 1470
- ECL signal [15]: 1920
- ECL signal [16]: 1080
- ECL signal [17]: 1400
- ECL signal [18]: 9080
- ECL signal [19]: 1220
- ECL signal [20]: 1800
- ECL signal [21]: 1540
B3: Fab VH1-46_IGHD7-27*01_IGHJ2*01 & A27_IGKJ1*01 (Fab, V domains shown)
VH: QVQLVQSGAEVKKPGASVKVSCKASGYTFTSYYMHWVRQAPGQGLEWMGIINPSGGSTSYAQKFQGRVTMTRDTSTSTVYMELSSLRSEDTAVYYCARANWGYWYFDLWGRGTLVTVSS
VL: not shown
notes: as for B1

- ECL signal [22]: 492
- ECL signal [23]: 2560
- ECL signal [24]: 563
- ECL signal [25]: 344
- ECL signal [26]: 381
- ECL signal [27]: 476
- ECL signal [28]: 311
- ECL signal [29]: 352
- ECL signal [30]: 421
B4: Fab VH2-5_IGHD7-27*01_IGHJ2*01 & L2_IGKJ1*01 (Fab, V domains shown)
VH: QITLKESGPTLVKPTQTLTLTCTFSGFSLSTSGVGVGWIRQPPGKALEWLALIYWNDDKRYSPSLKSRLTITKDTSKNQVVLTMTNMDPVDTATYYCAHRPNWGYWYFDLWGRGTLVTVSS
VL: not shown

- ECL signal [31]: 141000
- ECL signal [32]: 41700
- ECL signal [33]: 14100
- ECL signal [34]: 32000
- ECL signal [35]: 39600
- ECL signal [36]: 34600
B5: Fab VH1-46_IGHD6-13*01_IGHJ4*01 & L2_IGKJ1*01 (Fab, V domains shown)
VH: QVQLVQSGAEVKKPGASVKVSCKASGYTFTSYYMHWVRQAPGQGLEWMGIINPSGGSTSYAQKFQGRVTMTRDTSTSTVYMELSSLRSEDTAVYYCAREGYSSSWYDYFDYWGQGTLVTVSS
VL: not shown
